First the molecules themselves.
B1: CPEB3 Ribozyme (parent)
chain: GGGGGCCACAGCAGAAGCGUUCACGUCGCGGCCCCUGUCAGAUUCUGGUGAAUCUGCGAAUUCUGCUGU

In the RNAGym collection of RNA variant scans (doi:10.7554/elife.80360) one finds self-cleavage data, which are given here for 167 variants.

Variants of B1 are the subject of this data set. Description: self-cleavage, relative activity (ratio to wild type); higher = more cleavage; co-transcriptional.
In the case of G2C C45A, the self-cleavage amounted to 0.0472. With G2C C45U, the self-cleavage worked out at 0.0464.

G3A C7U: the self-cleavage was determined as 0.298. In the case of G2C U61C, the self-cleavage amounted to 0.048. On to G2C U61G, for which the self-cleavage is 0.0289. For G2C U61A the value was 0.0082; for G2U U55A, 0.0595; for G2U A13U, 0.052.

In the case of G2U A13C, the self-cleavage was found to be 0.09. For G2U C22A the value was 0.0323; for G2U C22U, 0.039.

On to G2U C22G, for which the self-cleavage amounted to 0.039. With G3A C34G, the self-cleavage came to 0.256. For G3A C34A the value was 0.516; for G2U C6A, 0.0497; for G2U C6U, 0.0652. As to G2U C6G, the self-cleavage stood at 0.0267. For G2C C22U the value was 0.0697; for G2C C22A, 0.0368; for G2C G56C, 0.0446. As for G2C G56A, the self-cleavage came to 0.014. For G2C G56U the value was 0.0319; for G3A A15U, 0.337. For the variant G3A A15G, the self-cleavage was 0.635. In the case of G3A A15C, the self-cleavage was 0.308. Regarding G3A A23G, the self-cleavage was determined as 0.401. With G3A A23C, the self-cleavage is 0.525. Turning to G2U C24G, the self-cleavage stood at 0.0682.

Turning to G2U C24U, the self-cleavage is 0.038. For the variant G2U C24A, the self-cleavage was found to be 0.0672. Regarding G2U G3C, the self-cleavage came out at 0.0704. As to G2U G3A, the self-cleavage was 0.0298. Consider G2C C54A, for which the self-cleavage was 0.0299. With G2C C54U, the self-cleavage came to 0.0485. Next, G2C A10U: 0.0719; G2C A10C: 0.0373. With G2C A10G, the self-cleavage stood at 0.0728. With G3A C12A, the self-cleavage is 0.324. For the variant G3A C12G, the self-cleavage came to 0.326.

G3A C12U: the self-cleavage came out at 0.723. As for G2U G68U, the self-cleavage stood at 0.106. As to G2U G68A, the self-cleavage amounted to 0.128. Turning to G2U G68C, the self-cleavage stood at 0.1.

Turning to G2U A16U, the self-cleavage amounted to 0.0525. As for G3A C18U, the self-cleavage was 0.349. Next, G2C C27G: 0.106; G2C C27A: 0.0594. Regarding G2U G56A, the self-cleavage is 0.0814. G2U G56C: the self-cleavage was found to be 0.0334. On to G2U G56U, for which the self-cleavage came out at 0.0789.

Consider G2C C6A, for which the self-cleavage was found to be 0.0465. As for G2C C6G, the self-cleavage worked out at 0. As for G2C C6U, the self-cleavage turned out to be 0.0751. Regarding G2U U64A, the self-cleavage is 0.0856. In the case of G2C U46G, the self-cleavage was determined as 0.0683. For G2C U46C the value was 0.0336. Regarding G2C U46A, the self-cleavage stood at 0.0309. For G2C A16U the value was 0.0422; for G2C A16C, 0.0354.

As to G2C A16G, the self-cleavage was 0.0604. Next, G3A C63A: 0.331; G2U U21G: 0.0462.

Consider G2U U21A, for which the self-cleavage came to 0.0838. On to G2U C39U, for which the self-cleavage turned out to be 0.0814. Next, G2U C39G: 0.045. For G2U C39A, the self-cleavage was determined as 0.0535. For G2U C27U, the self-cleavage came to 0.0348. As for G2U C27G, the self-cleavage came out at 0.0366.

As for G3A A52G, the self-cleavage worked out at 0.563.

G3A A52U: the self-cleavage was found to be 0.556. Turning to G3A C24A, the self-cleavage is 0.153. Turning to G3A C24U, the self-cleavage was found to be 0.188. As for G3A C24G, the self-cleavage was determined as 0.0795.

As for G2C G28U, the self-cleavage stood at 0.0543. For G2C G28C the value was 0.0457; for G2C G28A, 0.0369; for G3A C54G, 0.25. For G3A C54A the value was 0.243. For G3A C54U the value was 0.602. Take G2U G41A: the self-cleavage was found to be 0.0653. G2C G41U: the self-cleavage worked out at 0.101.

Regarding G2C G41C, the self-cleavage was determined as 0.0808. Take G2U U43G: the self-cleavage is 0.0816. For the variant G2U U43C, the self-cleavage came to 0.0688.

For G2U U43A, the self-cleavage amounted to 0.118. In the case of G3A C35G, the self-cleavage was 0.0971. Take G3A C35U: the self-cleavage was 0.215. Next, G2U C32G: 0.0483. For G2U C32U, the self-cleavage amounted to 0.113.

Turning to G2U A52C, the self-cleavage came to 0.0652. Next, G2U C54U: 0.0892; G2U C54G: 0.0751. For the variant G2U A51G, the self-cleavage was determined as 0.127. With G2U A51U, the self-cleavage was 0.0841. With G2C G48C, the self-cleavage was 0.0429. For G2C G48U the value was 0.105; for G2U U44A, 0.0745. Regarding G2U U44C, the self-cleavage came out at 0.067. As to G2U U44G, the self-cleavage amounted to 0.0788. Regarding G2C C63G, the self-cleavage came out at 0.0678.

For the variant G2U A8U, the self-cleavage was 0.0613.

On to G2U A8C, for which the self-cleavage is 0.0912. In the case of G2U A8G, the self-cleavage was found to be 0.0691. G2C C39U: the self-cleavage was found to be 0.0154.

On to G2C G14C, for which the self-cleavage amounted to 0.0627. On to G2C G14A, for which the self-cleavage is 0.0455. Next, G2C C33U: 0.0465; G2C C33G: 0.0592. For G2C C33A, the self-cleavage was 0.0155. As to G2U G31C, the self-cleavage is 0.061. Next, G2U G31U: 0.0654; G2U G48A: 0.0985.

For G2U G48U, the self-cleavage was found to be 0.0675. Regarding G3A A40G, the self-cleavage was found to be 0.455. G2U C12A: the self-cleavage amounted to 0.0547. Next, G2U C12G: 0.0633; G2U C12U: 0.13; G2C C9G: 0.123. As for G2C C9A, the self-cleavage turned out to be 0.0938. Next, G2C A59U: 0.0322; G2C A59C: 0.027; G2C U21A: 0.0234. As to G2C U21G, the self-cleavage turned out to be 0.0813. For G2U U38G the value was 0.0441; for G3A C57G, 0.175. For G3A C57A the value was 0.11. As to G3A C57U, the self-cleavage is 0.0942. Next, G2C A52C: 0.0825; G2C U36C: 0.063; G2U G28C: 0.0331. Take G2U G28A: the self-cleavage came to 0.0437. Turning to G3A C29A, the self-cleavage worked out at 0.149. In the case of G3A C29G, the self-cleavage stood at 0.122. Regarding G3A C29U, the self-cleavage was 0.145. For G2C G4A the value was 0.0684; for G2C G4C, 0.0427; for G2C G4U, 0.0417. For the variant G2C G47C, the self-cleavage was 0.0332. In the case of G2U U69G, the self-cleavage worked out at 0.109. In the case of G3A A8U, the self-cleavage came out at 0.697. For G2C G68A the value was 0.11; for G2C G68C, 0.114; for G2U G4U, 0.0539. On to G2U G4C, for which the self-cleavage amounted to 0.0426. In the case of G2C G31U, the self-cleavage is 0.0216. G2C G31C: the self-cleavage is 0.0401. For the variant G2C G31A, the self-cleavage is 0.0545. Take G2C U44C: the self-cleavage was determined as 0.0257. Consider G2C U53G, for which the self-cleavage is 0.0245. Consider G2C C29U, for which the self-cleavage turned out to be 0.0639. With G2C C29G, the self-cleavage worked out at 0.0119. Regarding G2U A60C, the self-cleavage came to 0.0553. For G2U A60U, the self-cleavage was 0.0623. Next, G2U A15C: 0.085.

On to G2U A15U, for which the self-cleavage turned out to be 0.0721. In the case of G2C U38G, the self-cleavage came out at 0.0453. For G2C U38C the value was 0.0174; for G2C A40G, 0.0911; for G2C A40U, 0.0469. Consider G2C A40C, for which the self-cleavage turned out to be 0.0316. For G3A C33G the value was 0.153; for G3A C33U, 0.231; for G2C G37U, 0.0045. Take G2C G37A: the self-cleavage worked out at 0.0459. For G2U, the self-cleavage was found to be 0.0871.

Consider G2U U46A, for which the self-cleavage was 0.0474.

On to G2U U46C, for which the self-cleavage was determined as 0.0853.
